Measured values as given in patent publication US20220372114A1 (CURIA IP, published 2022).
“And” between values parts separate entries of the source, which are not always exact repeats. Equal entries are not always repeated.

Assays:
[1] = target: SARS-CoV-1 spike on pseudovirus (SARS-CoV-1, UniProt P59594 14-1255); test: cell-based or functional assay
SARS-CoV-1 spike trimer [2] = target: T1, SARS-CoV-1 spike trimer (SARS-CoV-1, UniProt P59594 14-1195); test: ELISA, plate-coated SARS-CoV-1 spike
SARS-CoV-1 spike trimer [3] = target: T1, SARS-CoV-1 spike trimer; test: ELISA, plate-coated SARS-CoV-1 spike, purified mouse antibody

B1: 10-B13-A (human Fc IgG2 chimera) (antibody, V domains shown)
VH: QVQLQQSGAELVKPGASVKISCKASGYAFSNYWMNWVKQRPGKGLEWIGQIYPGDGDTNYNGNFKGKATLTADKSSSTAYIQLSSLTSEDSAVYFCGRGFIATVVEVFDHWGLGTTLTVSS
VL: DIQMTQTTSSLSASLGDRVTISCRASQDISNYLNWYQQKPDGTVKLLIYYTSRLQSGVPSRFSGSGTGTDYSLTISNLEQEDIATYFCQQGNTLPWTFGGGTKLEIK
[1]
  IC50, SARS-CoV-1 pseudovirus ACE2+TMPRSS2+ target cell infection assay: ~33 ug/ml and ~220 nM

B2: 10-B13-A (antibody, V domains shown)
VH: B1 VH
VL: B1 VL
SARS-CoV-1 spike trimer [2]
  EC50: ~1 nM
SARS-CoV-1 spike trimer [3]
  EC50: 0.96 nM
